# B1: ADI-14426 (antibody, V domains shown)
# VH: EVQLVESGGGVVQPGRSLRLSCAASGFTFSSFPMHWVRQAPGKGLEWVAVASYDGRNNYYAGSVKGRFTISRDNSKNTLYLQINSLRAEDTAVYYCAREVVIAAHFDYWGQGTLVTVSS
# VL: SSELTQEPAVSVALGQTVRITCQGDSLRSFYANWYQQKPGQAPILVIYGKNDRPSGIPDRFSGSNSGNTASLTITGAQAEDEADYYCNSRDSSGNHRVFGGGTKVTVL
# notes: also called Ab 92
# B2: ADI-14578 (antibody, V domains shown)
# VH: QVQLVQSGAEVKKPGSSVKVSCKASGGTFNNYAINWVRQAPGQGLEWMGGIIPMFGTANYAQKFQGRVTMTADESTSTAYMELSSLRSEDTAVYYCASSQIFVGGNYYKLEFDNWGQGTLVTVSS
# VL: QSVLTQPPSVSAAPGQKVTISCSGSNSNIGYNDVSWYQQLPGTAPQLLIYDNNKRTSGIPDRFSGSKFGTSATLGITGLQTGDEADYYCGTWDSSLSTVIFGGGTKLTVL
# B3: ADI-14422 (antibody, V domains shown)
# VH: QVQLVQSGAEVKKPGSSVKVSCKASGGTFSSYTINWVRQAPGQGLEWMGRIIPILGIANYAQKFQGRVTITADKSTSTAYMELSSLRSEDTAVYYCARRHQDTYGMDVWGQGTTVTVSS
# VL: QSVLTQPPSVSGAPGQRVTISCTGSSSNIGAGYDVHWYQQLPGTAPKLLIYGNSNRPSGVPDRFSGSKSGTSASLAITGLQAEDEADYYCQSYDSSLSGSVFGGGTKVTVL
# notes: also called Ab 88
# B4: ADI-14600 (antibody, V domains shown)
# VH: QVQLVQSGGGLVKPGGSLRLSCAASGFSFSDYYMNWIRQAPGKGLEWVSYISSSSSYTNYADSVKGRFTISRDNAKKSLYLQMNSLRAEDTAVYYCASQTYSDYARGGAFDIWGQGTTVTVSS
# VL: QSVLTQPPSVSGAPGQRVTISCTGSSSNIGAGYDVHWYQQLPGTAPKLLIYGNNNRPSGVPDRFSGSKSGTSASLAITGLQAEDEADYYCQSYDSSLSGSVFGTGTKVTVL
# B5: ADI-20969 (antibody, V domains shown)
# VH: EVQLVESGGGLVKPGGSLRLSCAASGFKFSSYTMNWVRQAPGKGLEWVSSVSASSSYIFYADSVQGRFIISRDNAQNSLYLQMNSLRADDTAVYYCARDQYGPGHYYNPAWFDPWGQGTLVTVSS
# VL: QPVLTQPPSVSGAPGQRVTISCTGTSSNIGAGYDVHWYKQLPGTAPKVLIYGNTNRPSGIPDRFSGSKSGTSASLAITGLKAEDEADYYCQSYDRSGSKVFGTGTKLTVL
# B6: ADI-21032 (antibody, V domains shown)
# VH: EVQLVESGGGLVKPGGSLRLSCAVSGFKFSSYTMNWVRQAPGKGLEWVSSVSASSSYIFYADSVQGRFIISRDNAQNSLYLQMNSLRADDTAVYYCTRDQYGPGHYYNPAWFDPWGQGTLVTVSS
# VL: QPVLTQPPSASGAPGQRVTISCTGSSSNIGAGYDVHWYQQLPGTAPKVLIYGNTNRPSGIPDRFSGSKSGTSASLAIIGLQAEDEADYYCQSYDRNGSKVFGTGTKLTVL
# notes: also called Ab 280
# B7: ADI-14577 (antibody, V domains shown)
# VH: QVQLVQSGAEVKKPGASVKVSCKASGYTFTNYGITWVRQAPGQGLEWMGWISAYNGVRNYAQKLQGRVTMTIDTSRTTAYMELKNLRSDDTAMYYCARGPPVIAADDFQHWGQGTMVTVSS
# VL: DIQMTQSPLSLPVTLGQPASISCRSSQSLVHSNGDTYLNWFQQRPGRSPRRLIYKVSNRDSGVPDRFSGSGSGTDFTLKISRVEAEDVGVYYCMQGTHWPPDFGQGTRLEIK
# B8: ADI-20970 (antibody, V domains shown)
# VH: EVQLLESGGGLVKPGGSLRLSCAVSGFSFSNAWMSWVRQAPGKGLEWVGRIRSKTDGGTTDYAAPVKGRFTISRDDSKNTLYLQMNSLKTEDTAVYYCTTAPRYSTSWYPGYYYYYYMDVWGKGTTVTVSS
# VL: DIQMTQSPSSLSASVGDRVTITCQASQDINFYLNWYQQKPGKAPKLLIYDASNLETGVPSRFSGSVSGTDFTFTISSLQPEDFATYYCQQYDDLPAFGGGTKVEIK
# B9: ADI-14423 (antibody, V domains shown)
# VH: EVQLVESGGVVIQPGGSLRLSCAASGFNFDDYSMHWVRQAPGKGLEWVSLISWDGGITYYADSVKGRFTISRDNGKKSLYLQMNSLRTEDTALYYCAKDIDIYSDYAGYFDYWGQGTLVTVSS
# VL: DIRMTQSPSSLSASVGDRVTITCRASQGIRNDLGWYQQKPGKAPKRLIYAASSLQSGVPSRFSGSGSGTEFTLTISSLQPEDFATYYCLQHNSYPFTFGQGTRLEIK
# notes: also called Ab 89
# B10: ADI-20961 (antibody, V domains shown)
# VH: QVQLVESGGGLVKPGGSLRLSCAASGFKFSSYYMHWVRQAPGKGLEWVSSVSGGSTYTSYADSVKGRFTISRDNAKHSLFLQLNSLRAEDTAVYHCVRGDYHPSGTSLNWFDPWGQGTLVTVSS
# VL: QPGLTQPPSVSGAPGQRVTISCTGSSSNIGAGYDVHWYKQLPGTVPKLLIYANNNRPSGVPDRFSGSESGTSASLAITGLQAEDEADYYCQSYDSSLNAYVFGTGTKVTVL
# B11: ADI-14602 (antibody, V domains shown)
# VH: EVQLVESGGGVVQPGGSLRLSCAASGFSFSSCGMHWVRQVSGKGLEWVAFIRYDGSNKFYADSVKGRFTISRDNSKNTLYLQMNSLRVEDTAVYYCAKGGLEDVSTGYSPHYYYGMDVWGQGTTVTVSS
# VL: QPVLTQPPSVSVSPGQTASITCSGDKLAYKYTCWYQQKPGQSPVLVIFQDSKRPSGIPERFSGSNSGNTATLTISGTQALDEADYYCQAWDSSTVVFGGGTKLTVL
# notes: also called Ab 130
# B12: ADI-14604 (antibody, V domains shown)
# VH: EVQLLESGGGLVQPGGSLRLSCSASGFTFNNYVMHWVRQAPGKGLEDASAISSNGVSTNYADSVKGRFTISRDNSKNTLYLQMRSLRAEDTALYYCVRDLIPHDSSAYYGYHGMDVWGQGTTVTVSS
# VL: QPVLTQPPSASGTPGQSVTISCSGSSSNIGTNVVNWYQQLPGTAPKLLIYSNDLRPSGVPDRFSGSKSGTSASLAISGLQSEDEANYYCAAWDDSLNGVLFGGGTKLTVL
# B13: ADI-14427 (antibody, V domains shown)
# VH: QVQLVQSGAEVKKPGSSVKVSCKASGGTFNSYTINWVRQAPGQGLEWMGRIITIPGATNYAQKFQGRVTFTADKSTSTAYMELSSLRSEDTAVYFCAKRGTGYYGMDVWGQGTTVTVSS
# VL: QSVLIQPRSVSGSPGQSVTISCTGTSSDVGGYNYVSWYQQHPGKAPKLMIYDVSERPSGVPDRFSGSKSGNTASLTISGLQAEDEADYYCCSFVGIYILVFGGGTKLTVL
# notes: also called Ab 93
# B14: ADI-14415 (antibody, V domains shown)
# VH: EVQLVESGPGLVKPSETLSLTCTVSGGSISNYYWTWIRQPPGEGLEWIGYIYYTGSTNYNPSLKNRVTISVDTPKNQFSLKLNSVTAADTAVYYCARGWGYSYGYESYYNGLDVWGQGTTVTVSS
# VL: DIQLTQSPSFLSASVGDRVTITCRASQGISSYLAWYQLKPGKAPKLLIYAAATLETGVPSRFSGSGSGTEFTLTISGLQPEDFATYYCQQLNSFPFTFGPGTKVEIK
# notes: also called Ab 81
# B15: ADI-14420 (antibody, V domains shown)
# VH: EVQLVESGGVVVQPGGSLRLSCAASGFNFDDYAMHWVRQAPGKGLEWVSLISWDGGNTYYSDSVKGRFTISRDNGKNSLYLQMNSLRAEDTALYYCAKDIDRYSGYDYVFHYWGQGTLVTVSS
# VL: DIRLTQSPSTLSAYVGDRVTITCRASQSISSWLAWYQQKPGKAPKLLIYKASSLESGVPSRFTGSGSGTEFTLTISGLQPDDFATYYCQQYNSYSTFGGGTKVDIK
# notes: also called Ab 86
# B16: ADI-20962 (antibody, V domains shown)
# VH: QVQLVQSGAEVKKPGASVKVSCKASGYTFSHYGLSWVRQAPGQGLEWMGWISAYNHNTNYAQKFQGRVTITTDTSTSTAYLEMRSLRSDDTAVYYCAREPPSDTAAGTGDYWGQGTLVTVSS
# VL: DIVMTQSPLSLSVTLGQPASISCRSSQSLVYSDGNTYLTWFQQRPGQSPRRLIYKVSNRDSGVPDRFSGSGSGTDFTLKISRVEAEDVGVYYCMQGTQWPRTFGQGTKVDIK
# B17: ADI-20964 (antibody, V domains shown)
# VH: QVQLVQSGAEVKKPGASVKVSCKASGYTFTHYGISWVRQAPGQGLEWMGWISAYNGNTNYAQKLQGRVTMTTDTSTSTAYMEVRSLRYDDTAVYYCARDVPVEAATSPEFWGQGTLVTVSS
# VL: DIVMTQTPLSLPVTLGQPASISCRSSQSLVYSDGNTYLSWFQQRPGQSPRRLIYKVSNRDSGVPNRFSGSGSGTDFTLKISRVEAEDVGVYYCVQNTHWPAYTFGQGTKVEIK
# B18: ADI-14597 (antibody, V domains shown)
# VH: EVQLVESGGVVVQPGGSLRLSCAVSGFNFDDYSMHWVRQLPGKGLEWVSLISWDGGITYYADSVKGRFTISRDNSKNSLYLQMNSLRTEDTALYYCAKDGNRYSDNDYYFDYWGQGTLVTVSS
# VL: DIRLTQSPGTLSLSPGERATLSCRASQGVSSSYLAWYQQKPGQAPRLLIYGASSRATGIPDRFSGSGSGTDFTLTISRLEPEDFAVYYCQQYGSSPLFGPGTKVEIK
# B19: ADI-20959 (antibody, V domains shown)
# VH: EVQLLESGAEVKKPGASVKVSCKTSGYTFSNYGVSWVRQAPGQGLEWLGWISAYNGNTNYAQKLQGRVTMTTDSSTSTAYMEVRSLRSDDTAVYYCARDVAPVAASLFDYWGQGTLVTVSS
# VL: DIRLTQSPLSLPVTLGQPASISCRSSQSLEFTDGNTYLSWFQQRPGQSPRRLIYKVSNRDSGVPDRFSGSGSGTDFTLKINRVEAEDVGVYYCMQGIHWPPTFGPGTKVEIK
# Legend:
# Test in all cases: BLI, IgG
# [1] = molecular target: RSV prefusion F (preF), subtype B (respiratory syncytial virus, subtype B)
# [2] = molecular target: T1, RSV postfusion F (postF), subtype A (respiratory syncytial virus, subtype A, UniProt P03420 26-513)
# T1 construct: also called F ΔFP; Postfusion subtype A
# [3] = molecular target: RSV prefusion F (preF), subtype A (respiratory syncytial virus, subtype A, UniProt P03420 26-513)
Binder,Kd [1] [nM],Kd [2] [nM],Kd [3] [nM],binding result [2]
B1,19.2,0.396,23.8,–
B2,4.02,–,3.29,no binding
B3,33.9,4.76,11.4,–
B4,0.986,–,0.758,no binding
B5,0.409,–,0.301,no binding
B6,0.344,–,0.296,no binding
B7,2.19,–,0.439,no binding
B8,2.55,–,1.83,no binding
B9,3.4,–,9.65,no binding
B10,0.504,–,0.374,no binding
B11,8.94,–,4.73,no binding
B12,1.53,–,2.44,no binding
B13,10.8,3.33,0.234,–
B14,3.51,–,4.2,no binding
B15,4.32,–,6.35,no binding
B16,0.463,–,0.289,no binding
B17,2.49,–,0.36,no binding
B18,1.67,–,5.26,no binding
B19,0.43,–,0.337,no binding
